The values below come from patent publication US20100209400A1, “TAK1-Mediated Regulation of Osteogenesis” (priority 2003, published 2010).

Assay [1] deals with nucleo-cytoplasmic shuttling of SMAD1 and SMAD3. As to the kind of experiment: Immunofluorescence of Flag-tagged SMAD1 and SMAD3 localisation in HEK293T cells. It is filed as cell-based, human. The conditions noted are these: Flag-tagged SMADs. The protocol: HEK293T cells were seeded at 2×10^5 cells/well into poly-D-lysine coated 6-well plates one day prior to transfection. Transient transfections were conducted with Fugene 6. After 30 hours, the cells were fixed with 4% paraformaldehyde in phosphate buffered saline (PBS) for 10 minutes, washed twice with PBS, and permeabilized with methanol followed by 0.5% Triton-X 100 in PBS. After washing with 0.1% Triton-X 100 in PBS (PBT), blocking was performed with 5% FCS in PBT for 1 hour at room temperature. Following another PBT wash, tagged proteins were incubated with the appropriate primary antibodies. Detection was accomplished via goat anti mouse-Alexa 488 (A-11001, Molecular Probes) (5 μg/ml) antibody for murine primary antibodies.
To determine whether TAK1-dependent interference with SMAD activity affected subcellular distribution of SMAD, immunofluorescence was used to localize flag-tagged SMAD1 or SMAD3 expressed in HEK293T cells in the absence or presence of constitutively active receptors (FIG. 7).

In assay [2] the test system is SMAD proteins. As to the kind of experiment: Co-immunoprecipitation of TAK1 variants with SMADs from HEK293T cells. The format is binding. The following applies: SMAD7, R-SMADs 1-3, 5, SMAD4. The procedure: Co-immunoprecipitation were conducted as described (Verschueren K et al, J. Biol. Chem, 274: 20489-20498, 1999). Human embryonic kidney (HEK) 293T cells were plated at 3×10^6 cells/petri dish (55 square centimeters (cm^2)) one day prior to transfection. For transient transfections, 1 μg of Flag-tagged expression plasmid and 2 μg of Myc- or HA-tagged expression plasmids were utilized. DNA content was normalized with empty vector. Transfections were performed with FuGENE6 (Roche, Mannheim). Roughly 36 hours post-transfection cells were dislodged from dishes and harvested by centrifugation. Pellets were shock frozen in liquid nitrogen. […] reactions were performed in lysis buffer. Cell extracts and immunoprecipitates were analyzed by SDS-PAGE and Western blot analysis using the appropriate antibodies.
Toward this end, co-immunoprecipitation with various combinations of wild-type TAK1 (TAK1wt) and R-SMADs, either in a latent form or post-activation by constitutively active BMP type I receptor (ALK6ca, BMPR-IB) or activin type I receptor ALK4ca (ActR-IB), I-SMADs and SMAD4, were conducted. […] TAK1 interaction with R-SMADs was typically stronger in the absence of constitutively active receptors (the exception being SMAD3), which may reflect a reduced affinity for activated, i.e. phosphorylated R-SMADs by TAK1, except with SMAD3.
SMAD proteins only bind TAK1 with an intact or a constitutively active kinase domain. Different TAK1 variants such as TAK1wt, TAK1ca, TAK1dn and two deletions, TAKDN (lacking amino acids 1-300; FIG. 1a) and TAKDC (lacking 301-606; FIG. 1a), respectively, were tested for their ability to bind to R-SMADs (using SMAD1 as a representative) or I-SMAD6 and I-SMAD7.

B1: TAK1dn: dominant-negative TAK1 mutant (K63W), kinase inactive (protein)
chain: MSTASAASSSSSSSASEMIEAPSQVLNFEEIDYKEIEVEEVVGRGAFGVVCKAKWRAKDVAIWQIESESERKAFIVELRQLSRVNHPNIVKLYGACLNPVCLVMEYAEGGSLYNVLHGAEPLPYYTAAHAMSWCLQCSQGVAYLHSMQPKALIHRDLKPPNLLLVAGGTVLKICDFGTACDIQTHMTNNKGSAAWMAPEVFEGSNYSEKCDVFSWGIILWEVITRRKPFDEIGGPAFRIMWAVHNGTRPPLIKNLPKPIESLMTRCWSKDPSQRPSMEEIVKIMTHLMRYFPGADEPLQYPCQYSDEGQSNSATSTGSFMDIASTNTSNKSDTNMEQVPATNDTIKRLESKLLKNQAKQQSESGRLSLGASRGSSVESLPPTSEGKRMSADMSEIEARIVATAGNGQPRRRSIQDLTVTGTEPGQVSSRSSSPSVRMITTSGPTSEKPARSHPWTPDDSTDTNGSDNSIPMAYLTLDHQLQPLAPCPNSKESMAVFEQHCKMAQEYMKVQTEIALLLQRKQELVAELDQDEKDQQNTSRLVQEHKKLLDENKSLSTYYQQCKKQLEVIRSQQQKRQGTS
modifications: left off: small tags and cut ends
Turning to B1, the “subcellular localisation of SMAD1 and SMAD3” value in assay [1] is reported as “predominantly in the nucleus”. Further, in assay [2], the “binding of TAK1 variant to SMAD proteins (co-immunoprecipitation)” value is given as “blocked binding”.
